Experimental data reported in the supplement of paper PMC9732359.
± gives the uncertainty stated by the source.

experiment: protein stability index of a GFP-peptide fusion (yeast GPS) (PSI 1-4); higher = more stable; sorted into four equal gates, so the index is relative within each strain; settings: ubr1∆
How it was run: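 The protein stability index of a peptide was calculated by multiplying its read frequency in each gate by that gate's number and adding the products. The peptides were tiled 17-residue stretches of yeast proteins, fused downstream of GFP on a Cherry-expressing plasmid and carried in yeast as a pooled library. Mid-log cultures in leucine-free medium were sorted into four equal gates by GFP/Cherry ratio, and each gate's plasmids were PCR-amplified and Illumina-sequenced.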

Row | Sequence | protein stability index
1 | DLTGSEPIKEIIDNWEK [FAS1] | 3.07 ± 0.16
2 | DMATGSNDTTAFNDSCV [SRB8] | 2.86 ± 0.037
3 | DMPCDVLAKRMANLSQI [SCL1] | 1.61 ± 0.076
4 | DMVMATVKKGKPELRKK [RPL23A] | 3.22 ± 0.11
5 | DNDTVVTNDDKSDDDDH [SRB8] | 3.19 ± 0.11
6 | DNGLGPLKYAPHLPFSK [SWI3] | 3.21 ± 0.058
7 | DNMITGVTKGYKYKMRY [RPL9A] | 3.1 ± 0.067
8 | DNPDQGISDMCRLFFTE [YCS4] | 3.04 ± 0.15
9 | DNSEYSRNGDFPRTRFE [RPN10] | 3.49 ± 0.17
10 | DNSVEQGRRLGESIMSE [MCD1] | 3.33 ± 0.12
11 | DNTARVIFDASIKDTQN [BRN1] | 2.68 ± 0.048
12 | DNTSHDEQDDDNVNSTT [BRN1] | 3.23 ± 0.062
13 | DNVDDIGEFNVSMYQNS [YDL088C/ASM4] | 3.19 ± 0.23
14 | DNYFNLQLNEAEEFVAG [SMX3] | 3.12 ± 0.12
15 | DPAHSLNYTVINFKSRE [AAR2] | 3.22 ± 0.037
16 | DPEEVEQQVAEEATTEE [RPS0A] | 3.56 ± 0.077
17 | DPKSPTKRSIAIVFEEI [YMR129W/POM152] | 2.72 ± 0.078
18 | DPLNSNIFSEAVKNKYN [PRP28] | 2.92 ± 0.096
19 | DPQQVFDERIKFANQLH [RPN3] | 1.33 ± 0.075
20 | DPSGSYFPWKATAIGKG [PRE8] | 3.13 ± 0.075
21 | DQEKKYGMSITETFEKP [RPB2] | 3.5 ± 0.1
22 | DQFQWILRKPGKDCKLQ [RRI2] | 3.3 ± 0.16
23 | DQHVINILWAIYNSASK [YCS4] | 1.59 ± 0.041
24 | DQNNKKMVGLRGFNNQI [SNF2] | 3.37 ± 0.044
25 | DQSISKLQSWDKVSSCF [NNF1] | 1.82 ± 0.053

Row | Sequence | protein stability index
26 | DQVLNLCLTEFENCYLE [FAS1] | 3.25 ± 0.048
27 | DRCVDPEDPYFNTLVRI [DIS3] | 3.4 ± 0.048
28 | DRFKPNLDIAKDLIRTD [MED4] | 2.96 ± 0.14
29 | DRGIANIRNNIESQNLD [SRB4] | 3.07 ± 0.067
30 | DRKSIMPLKILLATKQH [CSN12] | 1.42 ± 0.058
31 | DRNNSTNQIFQSRRYNL [SIN4] | 2.83 ± 0.039
32 | DRVVSSDSLDIAQGIDL [SRP72] | 3 ± 0.079
33 | DRYGNRYFWLDHNGVPF [ITC1] | 2.78 ± 0.082
34 | DSEKHIDFAPTSPFGGA [RPS9A] | 2.68 ± 0.041
35 | DSETSDPNEVEIKKLLA [DIS3] | 3.27 ± 0.094
36 | DSIASVLSPDSNIMSDS [GAL11] | 3.09 ± 0.099
37 | DSIGSTRVEGSGGGDSE [RPT6] | 2.97 ± 0.064
38 | DSILNYAKSEFDNVASV [ECM29] | 3.15 ± 0.18
39 | DSKKIKVDSPDDPFMTK [GAL11] | 2.82 ± 0.04
40 | DSLASELTLAEQQVKEA [SMC4] | 3.39 ± 0.23
41 | DSNYKWDLSVEDALYLG [PRE2] | 3.39 ± 0.049
42 | DSQDYILSINAIDYEPE [SMC1] | 3.02 ± 0.038
43 | DSRLSRKQIDETQVLVS [BRR2] | 2.13 ± 0.041
44 | DSTDNENSGKEMDEKSY [LIN1] | 3.49 ± 0.14
45 | DSTNLSDDAAQFMKRFP [ECM29] | 3.06 ± 0.1
46 | DSVILASSKAVTRGISV [PRE1] | 2.34 ± 0.041
47 | DSYGQGSMTKTWYVGNS [SSN2] | 3.05 ± 0.088
48 | DTIDNVKSKIQDKEGIP [RPS31] | 3.57 ± 0.075
49 | DTLKLRENLHILNEVFT [RRP6] | 2.4 ± 0.051
50 | DTLNETNLKMKRKWSYV [RRP43] | 2.61 ± 0.073

Row | Sequence | protein stability index
51 | DTNVVLQAIDLLENPNC [DIS3] | 2.73 ± 0.046
52 | DTPEGEACGLVKNLALM [RET1] | 1.71 ± 0.28
53 | DTRFGGRMDMTRLYDYE [SSN2] | 3.21 ± 0.061
54 | DTRITHLLRQTNAFLDS [SNF2] | 1.61 ± 0.024
55 | DTVSWFKQKYDADVLDK [RPL11A] | 1.97 ± 0.039
56 | DVECIKAKSHFTNIISR [YJL039C/NUP192] | 2.97 ± 0.056
57 | DVKKRTYEAIDVPGREL [RPB2] | 3.57 ± 0.17
58 | DVKVIMATNKIETLDPA [RPT2] | 2.9 ± 0.068
59 | DVLHPNRANVSKDELRE [RPS24A] | 3.1 ± 0.086
60 | DVLTLENIQEGTSLTIQ [CDC53] | 3.14 ± 0.054
61 | DVNLDVRIHSIQVLTEA [IRR1] | 2.84 ± 0.13
62 | DVPSEDDPTQLVSRGGC [RPO21] | 3.01 ± 0.15
63 | DVSLLLQRDLFIRLPHW [RGR1] | 2.55 ± 0.083
64 | DVSQLIAGINKKKGLDE [PRP28] | 3.76 ± 0.11
65 | DVSRVAAVETLYQDMAA [RPL20A] | 2.09 ± 0.071
66 | DVTAIQTWSYLSLYSTD [ECM29] | 1.92 ± 0.036
67 | DWESDLHIHLNQILQTE [YDL116W/NUP84] | 2.81 ± 0.15
68 | DWNKRFSHLAGGKIINK [BRR2] | 3 ± 0.089
69 | DYIEFNITFSEELVSLA [YJL039C/NUP192] | 1.61 ± 0.28
70 | DYLNAELGEFFVNGVAT [FAS2] | 3.35 ± 0.08
71 | EAAFRNIKTIAETLAEE [RPS5] | 2.84 ± 0.046
72 | EAEVTAEVNGGDDEATE [BRR2] | 2.72 ± 0.21
73 | EAFNDGNENFEDFDVEH [RPO26] | 3.21 ± 0.079
74 | EAHPTKVKNFGVWVRYD [RPL20A] | 2.9 ± 0.047
75 | EAKSFQDEAELVEEKTP [RPC82] | 3.5 ± 0.1
